Assay results: article PMC10502752

Target: T1, TaB3-2A1-GST (Triticum aestivum, UniProt A0A3B6AVE6 1-220)
T1 sequence: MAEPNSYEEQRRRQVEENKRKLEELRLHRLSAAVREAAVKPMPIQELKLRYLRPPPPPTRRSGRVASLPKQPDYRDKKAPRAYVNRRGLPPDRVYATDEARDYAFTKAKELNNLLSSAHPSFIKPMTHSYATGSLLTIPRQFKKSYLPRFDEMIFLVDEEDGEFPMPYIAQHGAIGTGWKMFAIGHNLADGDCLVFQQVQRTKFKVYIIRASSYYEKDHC
Assay: EMSA

B1: CCRM1-1 probe (dsDNA)
DNA 1: CTTTTGTGTTGGCAAACTGCGCTTTTCCAACCGATTTTGTTCTTCTCGCGCTTTCTTCTTAGGCTAAACAAACCTCACCGTGCACGCAGCCATGGTCCTGAACCTTCA
DNA 2: TGAAGGTTCAGGACCATGGCTGCGTGCACGGTGAGGTTTGTTTAGCCTAAGAAGAAAGCGCGAGAAGAACAAAATCGGTTGGAAAAGCGCAGTTTGCCAACACAAAAG
binding result: binds
